Residue numbers refer to the chain shown, from its start. Names may count otherwise.
How the values were obtained:
Type in all cases: biochemical, human
[1] = substrate: O=[N+]([O-])c1ccc(O)cc1; test: Substrate kinetics of recombinant SULT1A1*3; conditions: other: recombinant SULT1A1*3; 0.02 to 5.0 μM 4-nitrophenol; mean±SEM of nine
Method: (§1) Unless otherwise stated, concentrations of 4-nitrophenol and PAPS were 4 μM and 0.4 μM, respectively. Substrate kinetic experiments were conducted in the presence of a series of concentrations of 4-nitrophenol and PAPS to make it possible to calculate apparent Km values. Enzyme activity was expressed as nmoles of sulfate conjugated product formed per hr of incubation. Protein concentrations were measured by the dye-binding method of Bradford with bovine serum albumin (BSA) as a standard.
(§2) The concentration of 4-nitrophenol used to study each recombinant protein was the same as was used in the thermal stability experiments. All assays for the determination of apparent Km values, thermal stability or DCNP inhibition were performed in triplicate, and all experiments were performed at least three times, i.e., each of the data points shown subsequently represents the average of at least nine separate assays.
(§3) Apparent Km values were calculated by using the method of Wilkion with a computer program written by Cleland. […] Statistical comparisons of data were performed by ANOVA with the StatView program, version 4.5 (Abacus Concepts, Inc., Berkeley, Calif.).
(§4) Expression constructs for each of the common (frequencies≧1%) allozymes for SULT1A1 and SULT1A2 were used to transfect COS-1 cells. Selected biochemical and physical properties of the expressed enzymes were then determined. […]

[2] = substrate: O=[N+]([O-])c1ccc(O)cc1; test: Substrate kinetics of recombinant SULT1A1*1; conditions: other: recombinant SULT1A1*1; 0.02 to 5.0 μM 4-nitrophenol; mean±SEM of nine
Method: as §1, §2, §3, §4

[3] = substrate: O=[N+]([O-])c1ccc(O)cc1; test: Substrate kinetics of recombinant SULT1A3; conditions: other: recombinant SULT1A3; 3.9 to 3000 μM 4-nitrophenol; mean±SEM of nine
[4] = substrate: O=[N+]([O-])c1ccc(O)cc1; test: Substrate kinetics of recombinant SULT1A2*1; conditions: other: recombinant SULT1A2*1; 0.08 to 10.0 μM 4-nitrophenol; mean±SEM of nine
Method: as §1, §2, §3, §4

[5] = substrate: O=[N+]([O-])c1ccc(O)cc1; test: Substrate kinetics of recombinant SULT1A2*3; conditions: other: recombinant SULT1A2*3; 0.08 to 10.0 μM 4-nitrophenol; mean±SEM of nine
Method: as §1, §2, §3, §4

[6] = substrate: O=[N+]([O-])c1ccc(O)cc1; test: Substrate kinetics of recombinant SULT1A2*2; conditions: other: recombinant SULT1A2*2; 1.0 to 1000 μM 4-nitrophenol; mean±SEM of nine
Method: as §1, §2, §3, §4

B1: SULT1A1*3 (Homo sapiens) (protein)
chain: MELIQDTSRPPLEYVKGVPLIKYFAEALGPLQSFQARPDDLLISTYPKSGTTWVSQILDMIYQGGDLEKCHRAPIFMRVPFLEFKAPGIPSGMETLKDTPAPRLLKTHLPLALLPQTLLDQKVKVVYVARNAKDVAVSYYHFYHMAKVHPEPGTWDSFLEKFMVGEVSYGSWYQHVQEWWELSRTHPVLYLFYEDMKENPKREIQKILEFVGRSLPEETVDFVVQHTSFKEMKKNPMTNYTTVPQEFMDHSISPFMRKGMAGDWKTTFTVAQNERFDADYAEKMAGCSLSFRSEL
notes: made in house; host or cells: COS-1 cells, pCR3.1 vector, unpurified cytosol
For B1, which Km [1] is on record?
The Km was 0.31 ± 0.01 µM.

B2: SULT1A1*1 (Homo sapiens) (protein)
chain: B1 chain
notes: as for B1
With B2 as the protein, how does the Km [2] read?
The Km was 0.88 ± 0.07 µM.

B3: SULT1A3 (Homo sapiens) (protein)
chain: MELIQDTSRPPLEYVKGVPLIKYFAEALGPLQSFQARPDDLLINTYPKSGTTWVSQILDMIYQGGDLEKCNRAPIYVRVPFLEVNDPGEPSGLETLKDTPPPRLIKSHLPLALLPQTLLDQKVKVVYVARNPKDVAVSYYHFHRMEKAHPEPGTWDSFLEKFMAGEVSYGSWYQHVQEWWELSRTHPVLYLFYEDMKENPKREIQKILEFVGRSLPEETMDFMVQHTSFKEMKKNPMTNYTTVPQELMDHSISPFMRKGMAGDWKTTFTVAQNERFDADYAEKMAGCSLSFRSEL
notes: as for B1
Which Km [3] does the source give for B3 here?
Its Km is 4960 ± 810 µM.

B4: SULT1A2*1 (Homo sapiens) (protein)
chain: MELIQDISRPPLEYVKGVPLIKYFAEALGPLQSFQARPDDLLISTYPKSGTTWVSQILDMIYQGGDLEKCHRAPIFMRVPFLEFKVPGIPSGMETLKNTPAPRLLKTHLPLALLPQTLLDQKVKVVYVARNAKDVAVSYYHFYHMAKVYPHPGTWESFLEKFMAGEVSYGSWYQHVQEWWELSRTHPVLYLFYEDMKENPKREIQKILEFVGRSLPEETVDLMVEHTSFKEMKKNPMTNYTTVRREFMDHSISPFMRKGMAGDWKTTFTVAQNERFDADYAKKMAGCSLSFRSEL
notes: as for B1
With B4 as the protein, how does the Km [4] read?
Its Km is 8.70 ± 1.10 µM.

B5: SULT1A2*3 (Homo sapiens; P19L) (protein)
chain: B4 chain with P19L
notes: as for B1
With B5 as the protein, how does the Km [5] read?
The Km was 5.65 ± 1.14 µM.

B6: SULT1A2*2 (Homo sapiens; I7T/N235T) (protein)
chain: B4 chain with I7T, N235T
notes: as for B1
How did the Km [6] turn out when B6 was run?
Its Km is 373 ± 33 µM.
